B1: Poliovirus receptor (Homo sapiens), P15151 (parent)
chain: MARAMAAAWPLLLVALLVLSWPPPGTGDVVVQAPTQVPGFLGDSVTLPCYLQVPNMEVTHVSQLTWARHGESGSMAVFHQTQGPSYSESKRLEFVAARLGAELRNASLRMFGLRVEDEGNYTCLFVTFPQGSRSVDIWLRVLAKPQNTAEVQKVQLTGEPVPMARCVSTGGRPPAQITWHSDLGGMPNTSQVPGFLSGTVTVTSLWILVPSSQVDGKNVTCKVEHESFEKPQLLTVNLTVYYPPEVSISGYDNNWYLGQNEATLTCDARSNPEPTGYNWSTTMGPLPPFAVAQGAQLLIRPVDKPINTTLICNVTNALGARQAELTVQVKEGPPSEHSGISRNAIIFLVLGILVFLILLGIGIYFYWSKCSREVLWHCHLCPSSTEHASASANGHVSYSAVSRENSSSQDPQTEGTR
partner: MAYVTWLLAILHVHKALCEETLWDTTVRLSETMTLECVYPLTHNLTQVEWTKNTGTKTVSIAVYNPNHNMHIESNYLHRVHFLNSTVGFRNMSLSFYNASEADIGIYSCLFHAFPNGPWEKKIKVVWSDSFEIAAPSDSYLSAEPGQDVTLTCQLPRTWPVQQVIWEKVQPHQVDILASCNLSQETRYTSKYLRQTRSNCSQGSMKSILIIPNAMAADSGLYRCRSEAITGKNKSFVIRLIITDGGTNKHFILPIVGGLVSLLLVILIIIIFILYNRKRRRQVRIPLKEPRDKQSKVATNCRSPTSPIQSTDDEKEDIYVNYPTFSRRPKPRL
B2: CD226 antigen (Mus musculus), Q8K4F0 (parent)
chain: B1 partner
partner: B1 chain
B3: Poliovirus receptor (Homo sapiens), P15151 (parent)
chain: B1 chain
partner: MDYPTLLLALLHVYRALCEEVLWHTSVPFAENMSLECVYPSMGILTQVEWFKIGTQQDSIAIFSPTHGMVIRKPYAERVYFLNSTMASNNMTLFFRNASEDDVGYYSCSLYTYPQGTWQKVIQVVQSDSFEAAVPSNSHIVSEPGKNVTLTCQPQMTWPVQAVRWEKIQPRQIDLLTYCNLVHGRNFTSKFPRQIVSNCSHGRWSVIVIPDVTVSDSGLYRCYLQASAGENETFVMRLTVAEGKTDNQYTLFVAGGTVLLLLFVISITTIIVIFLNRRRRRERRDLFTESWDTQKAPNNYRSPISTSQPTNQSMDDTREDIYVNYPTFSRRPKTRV

Variants of: B1
Settings: with cd226_mouse Cd226, Q8K4F0

Row | Variant | effect of a mutation on the interaction
1 | Q63R;F128R | disrupting interaction strength

Variants of: B2
Settings: with pvr_human PVR, P15151

Row | Variant | effect of a mutation on the interaction
2 | Q47R;E49R;H68S;F114R | disrupting interaction strength
3 | F114A | disrupting interaction strength
4 | Q47A | disrupting interaction strength
5 | H68A | decreasing interaction strength

Variants of: B3
Settings: with cd226_human CD226, Q15762

Row | Variant | effect of a mutation on the interaction
6 | Q63R;F128R | disrupting interaction strength

— IntAct's records for PubMed 30591568
